The values that follow come from patent US20090098127A1 (MEDICAL RESEARCH FUND OF TEL AVIV SOURASKY MEDICAL CENTER, published 2009).

For test [1], the target named is T1, hypoxia-inducible factor 1, alpha subunit isoform 1 (HIF-1α), untagged (human, UniProt Q16665 1-826).
T1 construct: Stands for both endogenous HIF-1α (PC-3, CL-1, HEK 293) and the untagged wild-type protein expressed from pcDNA3.1-HIF-1α; also called HIF-1 alpha; pcDNA3.1-HIF-1α product
Briefly: IP with HIF-1α antibody, Flag immunoblot, HEK 293 cells.

For test [2], the target named is T2, p300 co-activator (UniProt Q09472 2-2414).
T2 construct: Endogenous protein, detected with anti-p300 antibody (Santa Cruz); also called p300 protein
Briefly: co-IP with anti-Flag antibody, p300 immunoblot; association within the HIF-1α complex, may be indirect. How it is done: The p300 co-activator is associated with HIF-1α and MSF-A proteins—To test the hypothesis that proteins, which are known to interact with the HIF-1α protein, such as the co-activator p300, are associated with MSF-A and HIF-1α, cells were co-transfected with the pcDNA3.1-HIF-1α and the p3×Flag-MSF-A expression vectors and IP experiments were performed using either anti-FLAG or anti-HIF-1α antibodies. As shown in FIGS. 5a-c, while the anti-HIF-1α antibody was capable of precipitating the p300 protein in both cells co-transfected with the pcDNA3.1-HIF-1α and the p3×Flag-cmv-25 expression vector alone and cells co-transfected with the pcDNA3.1-HIF-1α and the p3×Flag-MSF-A vectors, the anti-Flag antibody was capable of precipitating the p300 protein only in cells that were co-transfected with the pcDNA3.1-HIF-1α and the p3×Flag-MSF-A vectors.

In test [3] the target is T1, hypoxia-inducible factor 1, alpha …. Nature of the test: cell-based or functional assay.
Test [4] concerns the target T3, HIF-1β (UniProt P27540 2-789, limits assumed).
T3 construct: Endogenous protein in HEK 293 lysates; also called HIF-1β protein
Nature of the test: co-IP with anti-Flag antibody, HIF-1β immunoblot, HEK 293 cells. The text has this:
FIGS. 3a-f are autoradiograms illustrating HIF-1α immunoblotting of FLAG immunoprecipitates (IP) (FIG. 3b) or whole cell extracts (WCE) (FIG. 3a), FLAG immunoblotting of HIF-1α IP (FIG. 3d) or WCE (FIG. 3c), and HIF-1β immunoblotting of FLAG IP (FIG. 3f) or WCE (FIG. 3e). HEK 293 cells were transiently co-transfected with two of the following expression vectors: p3×Flag-cmv-25 (EV), pcdna3.1-HIF-1α (HIF-1α) or p3×Flag-MSF-A (MSF-A), and two days following transfection under normoxic conditions WCE or IP were subjected to immunoblot (IB) analysis. Lane 1-EV and HIF-1α; lane 2-MSF-A and HIF-1α.
To confirm the interaction between the HIF-1α and the MSF-A proteins, HEK 293 cells were transiently co-transfected with the p3×Flag-MSF-A and the pcDNA3.1-HIF-1α vectors, and were grown for 24 hours under normoxic conditions (i.e., conditions of 20% oxygen), following which whole cell extracts (WCE) were subjected to co-immunoprecipitation (IP) using anti-FLAG or anti-HIF-1α antibodies. Following IP, the proteins were subjected to SDS-PAGE and immunoblotting (IB) using the counterpart antibody. As is shown in FIGS. 3a-d, following transfection with both expression vectors (i.e., pcDNA3.1-HIF-1α and p3×Flag-MSF-A) immunoprecipitates generated using either the anti-HIF-1α antibody or the anti-Flag antibody included the reciprocal proteins, i.e., the Flag-MSF-A or HIF-1α proteins, respectively.
For orientation: Immunoblotting shows a protein as a band on a membrane.

T1 sequence (Q16665 whole entry, canonical isoform): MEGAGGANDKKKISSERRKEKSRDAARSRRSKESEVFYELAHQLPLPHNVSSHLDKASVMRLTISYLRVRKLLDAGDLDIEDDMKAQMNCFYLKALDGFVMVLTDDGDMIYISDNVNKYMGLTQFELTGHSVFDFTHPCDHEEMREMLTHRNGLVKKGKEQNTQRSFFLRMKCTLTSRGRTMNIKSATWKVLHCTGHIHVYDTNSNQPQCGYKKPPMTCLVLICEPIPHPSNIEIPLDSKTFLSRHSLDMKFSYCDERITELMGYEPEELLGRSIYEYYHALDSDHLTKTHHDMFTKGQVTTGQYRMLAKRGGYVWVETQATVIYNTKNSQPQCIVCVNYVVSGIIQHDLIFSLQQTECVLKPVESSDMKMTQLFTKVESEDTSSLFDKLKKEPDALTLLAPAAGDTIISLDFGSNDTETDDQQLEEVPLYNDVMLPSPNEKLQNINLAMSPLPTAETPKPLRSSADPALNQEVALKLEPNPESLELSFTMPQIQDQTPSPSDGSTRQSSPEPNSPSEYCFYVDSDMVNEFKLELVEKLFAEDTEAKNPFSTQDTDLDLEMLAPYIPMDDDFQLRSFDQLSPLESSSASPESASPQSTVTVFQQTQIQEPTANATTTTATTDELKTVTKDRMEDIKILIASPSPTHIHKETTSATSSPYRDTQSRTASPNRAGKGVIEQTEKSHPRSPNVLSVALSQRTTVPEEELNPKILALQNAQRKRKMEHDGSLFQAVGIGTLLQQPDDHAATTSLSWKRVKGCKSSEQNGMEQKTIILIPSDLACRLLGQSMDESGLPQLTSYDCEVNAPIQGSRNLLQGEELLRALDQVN
T2 sequence (Q09472 2-2414 limits assumed): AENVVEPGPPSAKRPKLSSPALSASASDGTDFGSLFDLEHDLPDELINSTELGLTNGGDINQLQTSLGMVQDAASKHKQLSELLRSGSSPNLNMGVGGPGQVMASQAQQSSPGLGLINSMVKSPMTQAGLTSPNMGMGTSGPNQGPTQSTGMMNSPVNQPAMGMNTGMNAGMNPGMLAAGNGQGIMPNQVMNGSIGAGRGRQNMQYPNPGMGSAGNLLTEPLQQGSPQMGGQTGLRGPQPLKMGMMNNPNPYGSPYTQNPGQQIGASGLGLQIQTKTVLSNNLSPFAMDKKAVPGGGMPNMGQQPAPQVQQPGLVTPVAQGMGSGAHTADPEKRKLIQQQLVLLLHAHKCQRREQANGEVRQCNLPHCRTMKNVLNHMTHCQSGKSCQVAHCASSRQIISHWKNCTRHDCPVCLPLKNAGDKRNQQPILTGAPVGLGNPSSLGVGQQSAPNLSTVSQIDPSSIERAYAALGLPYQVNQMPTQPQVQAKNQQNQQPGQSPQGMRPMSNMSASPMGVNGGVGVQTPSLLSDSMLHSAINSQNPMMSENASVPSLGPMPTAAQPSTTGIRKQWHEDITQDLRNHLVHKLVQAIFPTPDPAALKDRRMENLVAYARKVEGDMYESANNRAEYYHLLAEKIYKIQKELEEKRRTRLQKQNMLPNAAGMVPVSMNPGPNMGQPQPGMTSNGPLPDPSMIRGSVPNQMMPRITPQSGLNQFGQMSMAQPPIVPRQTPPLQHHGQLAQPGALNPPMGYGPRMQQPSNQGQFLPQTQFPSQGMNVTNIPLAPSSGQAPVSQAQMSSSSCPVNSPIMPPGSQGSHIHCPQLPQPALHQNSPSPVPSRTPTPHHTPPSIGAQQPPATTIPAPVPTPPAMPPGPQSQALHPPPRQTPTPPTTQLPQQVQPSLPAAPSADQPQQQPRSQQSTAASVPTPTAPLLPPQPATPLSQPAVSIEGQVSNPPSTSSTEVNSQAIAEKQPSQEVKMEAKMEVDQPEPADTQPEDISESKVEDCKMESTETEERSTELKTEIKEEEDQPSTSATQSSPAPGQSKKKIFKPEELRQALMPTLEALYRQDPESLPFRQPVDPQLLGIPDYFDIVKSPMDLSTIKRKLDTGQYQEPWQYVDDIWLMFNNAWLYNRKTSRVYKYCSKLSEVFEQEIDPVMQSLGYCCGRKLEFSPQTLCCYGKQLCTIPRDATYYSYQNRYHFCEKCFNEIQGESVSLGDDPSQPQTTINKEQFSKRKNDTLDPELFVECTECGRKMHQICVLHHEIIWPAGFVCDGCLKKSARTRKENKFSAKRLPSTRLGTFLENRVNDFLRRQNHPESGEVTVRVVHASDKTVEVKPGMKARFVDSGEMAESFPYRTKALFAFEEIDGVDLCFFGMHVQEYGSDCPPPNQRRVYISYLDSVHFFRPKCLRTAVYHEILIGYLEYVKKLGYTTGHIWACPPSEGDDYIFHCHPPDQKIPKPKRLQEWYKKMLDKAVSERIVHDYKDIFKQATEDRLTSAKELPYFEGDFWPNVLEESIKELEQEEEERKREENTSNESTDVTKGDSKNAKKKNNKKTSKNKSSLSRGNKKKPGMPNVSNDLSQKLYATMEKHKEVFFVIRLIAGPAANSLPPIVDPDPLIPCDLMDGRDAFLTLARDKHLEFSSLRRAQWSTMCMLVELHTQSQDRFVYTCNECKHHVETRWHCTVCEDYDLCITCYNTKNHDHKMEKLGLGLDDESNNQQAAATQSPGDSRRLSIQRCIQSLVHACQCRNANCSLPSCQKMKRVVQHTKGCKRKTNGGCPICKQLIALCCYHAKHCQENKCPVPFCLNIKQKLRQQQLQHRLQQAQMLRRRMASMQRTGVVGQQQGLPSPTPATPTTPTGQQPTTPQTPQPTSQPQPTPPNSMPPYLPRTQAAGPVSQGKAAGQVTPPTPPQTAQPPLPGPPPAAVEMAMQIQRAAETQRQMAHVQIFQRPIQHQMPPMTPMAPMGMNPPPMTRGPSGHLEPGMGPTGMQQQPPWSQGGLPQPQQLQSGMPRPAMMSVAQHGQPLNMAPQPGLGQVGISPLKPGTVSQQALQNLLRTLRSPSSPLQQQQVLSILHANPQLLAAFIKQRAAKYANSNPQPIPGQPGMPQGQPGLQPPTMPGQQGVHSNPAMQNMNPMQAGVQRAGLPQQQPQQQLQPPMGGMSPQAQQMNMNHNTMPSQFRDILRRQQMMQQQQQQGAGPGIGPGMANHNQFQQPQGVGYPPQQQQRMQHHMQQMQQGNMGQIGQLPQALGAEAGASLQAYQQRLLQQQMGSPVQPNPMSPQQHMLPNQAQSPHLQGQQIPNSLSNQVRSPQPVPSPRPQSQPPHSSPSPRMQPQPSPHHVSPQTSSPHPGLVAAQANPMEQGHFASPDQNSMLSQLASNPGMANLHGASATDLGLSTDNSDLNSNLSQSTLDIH
T3 sequence (P27540 2-789 limits assumed): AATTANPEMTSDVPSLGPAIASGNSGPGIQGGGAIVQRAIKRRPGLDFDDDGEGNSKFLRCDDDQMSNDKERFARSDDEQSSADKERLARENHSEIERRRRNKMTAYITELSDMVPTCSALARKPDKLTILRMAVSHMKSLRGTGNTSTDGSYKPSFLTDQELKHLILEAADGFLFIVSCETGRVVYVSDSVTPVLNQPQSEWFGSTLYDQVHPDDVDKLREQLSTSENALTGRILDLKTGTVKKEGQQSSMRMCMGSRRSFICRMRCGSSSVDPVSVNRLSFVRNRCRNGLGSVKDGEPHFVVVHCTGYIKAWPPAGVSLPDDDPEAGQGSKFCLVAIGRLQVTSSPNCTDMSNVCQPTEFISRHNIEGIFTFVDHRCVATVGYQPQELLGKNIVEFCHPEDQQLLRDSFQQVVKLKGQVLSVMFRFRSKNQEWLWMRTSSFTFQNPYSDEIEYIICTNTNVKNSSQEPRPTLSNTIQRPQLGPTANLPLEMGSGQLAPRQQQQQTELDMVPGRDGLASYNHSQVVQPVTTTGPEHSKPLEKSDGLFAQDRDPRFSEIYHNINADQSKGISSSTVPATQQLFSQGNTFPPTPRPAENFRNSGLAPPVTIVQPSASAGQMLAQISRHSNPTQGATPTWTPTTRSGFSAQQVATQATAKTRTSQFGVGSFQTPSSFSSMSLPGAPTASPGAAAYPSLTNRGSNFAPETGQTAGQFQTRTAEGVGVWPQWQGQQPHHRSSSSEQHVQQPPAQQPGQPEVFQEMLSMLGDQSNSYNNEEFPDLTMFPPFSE

B1: Flag-ΔG-MSF-A (p3×Flag-ΔG-MSF-A product) (other)
chain: MKKSYSGGTRTSSGRLRRLGDSSGPALKRSFEVEEVETPNSTPPRRVQTPLLRATVASSTQKFQDLGVKNSEPSARHVDSLSQRSPKASLRRVELSGPKAAEPVSRRTELSIDISSKQVENAGAIGPSRFGLKRAEVLGHKTPEPAPRRTEITIVKPQESAHRRMEPPASKVPEVPTAPATDAAPKRVEIQMPKPAEAPTAPSPAQTLENSEPAPVSQLQSRLEPKPQPPVAEATPRSQEATEAAPSCVGDMADTPRDAGLKQAPASRNEKAPVDFGYVGIDSILEQMRRKAMKQGFEFNIMVVTLINTLFKSKISRKSVQPTSEERIPKTIEIKSITHDIEEKGVRMKLTVIDTPGFGDHINNENCWQPIMKFINDQYEKYLQEEVNINRKKRIPDTRVHCCLYFIPATGHSLRPLDIEFMKRLSKVVNIVPVIAKADTLTLEERVHFKQRITADLLSNGIDVYPQKEFDEDSEDRLVNEKFREMIPFAVVGSDHEYQVNGKRILGRKTKWGTIEVENTTHCEFAYLRDLLIRTHMQNIKDITSSIHFEAYRVKRLNEGSSAMANGVEEKEPEAPEM
notes: also called AG-MSF-A; not shown: N-terminal Flag tag from vector p3×Flag-myc-CMV-25
On to B1, for which, in test [1], the binding result was “binds”.

B2: Flag-MSF-A (p3×Flag-MSF-A product, wild type) (other, not shown: small tags and cut ends)
chain: MKKSYSGGTRTSSGRLRRLGDSSGPALKRSFEVEEVETPNSTPPRRVQTPLLRATVASSTQKFQDLGVKNSEPSARHVDSLSQRSPKASLRRVELSGPKAAEPVSRRTELSIDISSKQVENAGAIGPSRFGLKRAEVLGHKTPEPAPRRTEITIVKPQESAHRRMEPPASKVPEVPTAPATDAAPKRVEIQMPKPAEAPTAPSPAQTLENSEPAPVSQLQSRLEPKPQPPVAEATPRSQEATEAAPSCVGDMADTPRDAGLKQAPASRNEKAPVDFGYVGIDSILEQMRRKAMKQGFEFNIMVVGQSGLGKSTLINTLFKSKISRKSVQPTSEERIPKTIEIKSITHDIEEKGVRMKLTVIDTPGFGDHINNENCWQPIMKFINDQYEKYLQEEVNINRKKRIPDTRVHCCLYFIPATGHSLRPLDIEFMKRLSKVVNIVPVIAKADTLTLEERVHFKQRITADLLSNGIDVYPQKEFDEDSEDRLVNEKFREMIPFAVVGSDHEYQVNGKRILGRKTKWGTIEVENTTHCEFAYLRDLLIRTHMQNIKDITSSIHFEAYRVKRLNEGSSAMANGVEEKEPEAPEM
notes: FLAG at the amino terminal of the recombinant protein; Expressed in HEK 293 or PC-3 cells and assayed in lysates; also called Flag-tagged MSF-A; recombinant MSF-A
For B2, the binding result in test [2] is listed as “binds”. In test [3], the “degradation half-life of HIF-1α (cycloheximide, PC-3-MSF-A cells against PC-3-Neo cells)” value was found to be 40 min; the “half-life of HIF-1α protein (pulse-chase, PC-3-MSF-A cells against PC-3-Neo cells)” value was roughly 45 min; the “luciferase activity (HRE reporter), hypoxia as compared to normoxia, PC-3 cells” value turned out to be 50 fold. For the same molecule, the binding result in test [4] is on record as “no binding”.

B3: Flag-ΔN-MSF-A (p3×Flag-ΔN-MSF-A product) (other)
chain: ALKRSFEVEEVETPNSTPPRRVQTPLLRATVASSTQKFQDLGVKNSEPSARHVDSLSQRSPKASLRRVELSGPKAAEPVSRRTELSIDISSKQVENAGAIGPSRFGLKRAEVLGHKTPEPAPRRTEITIVKPQESAHRRMEPPASKVPEVPTAPATDAAPKRVEIQMPKPAEAPTAPSPAQTLENSEPAPVSQLQSRLEPKPQPPVAEATPRSQEATEAAPSCVGDMADTPRDAGLKQAPASRNEKAPVDFGYVGIDSILEQMRRKAMKQGFEFNIMVVGQSGLGKSTLINTLFKSKISRKSVQPTSEERIPKTIEIKSITHDIEEKGVRMKLTVIDTPGFGDHINNENCWQPIMKFINDQYEKYLQEEVNINRKKRIPDTRVHCCLYFIPATGHSLRPLDIEFMKRLSKVVNIVPVIAKADTLTLEERVHFKQRITADLLSNGIDVYPQKEFDEDSEDRLVNEKFREMIPFAVVGSDHEYQVNGKRILGRKTKWGTIEVENTTHCEFAYLRDLLIRTHMQNIKDITSSIHFEAYRVKRLNEGSSAMANGVEEKEPEAPEM
notes: Deletion of the first 25 amino acids of MSF-A; also called N-terminal truncated form of MSF-A; not shown: N-terminal Flag tag from vector p3×FLAG-myc-CMV-25
Take B3: the binding result in test [1] is given as “binds”.
